Ends that are not written are not given here.
B1: Mouse protamine P1 (natural protein)
chain: MARYRC(pyridylethyl)C(pyridylethyl)RSKSRSRC(pyridylethyl)RRRRRRC(pyridylethyl)RRRRRRC(pyridylethyl)C(pyridylethyl)RRRRRRC(pyridylethyl)C(pyridylethyl)RRRRSYTIRC(pyridylethyl)KKY
B2: Mouse nucleoplasmin M.NPM2 (full murine NPM2) (natural protein)
chain: MSRHSTSSVTETTAKNMLWGSELNQEKQTCTFRGQGEKKDSCKLLLSTICLGEKAKEEVNRVEVLSQEGRKPPITIATLKASVLPMVTVSGIELSPPVTFRLRTGSGPVFLSGLECYETSDLTWEDDEEEEEEEEEEDEDEDADISLEEIPVKQVKRVAPQKQMSIAKKKKVEKEEDETVVRPSPQDKSPWKKEKSTPRAKKPVTKK

Experiments:
[1] = molecular target: T1, Mouse nucleoplasmin M.NPM2 (full murine NPM2) (mouse, UniProt Q80W85 1-207); experiment: cross-linking
T1 sequence: B2 chain

[2] = molecular target: mouse P1+P2 (stoichiometric mixture containing equal amounts of protamines P1 and P2) (mouse); experiment: native gel or EMSA

| Binder | binding result [1] | stoichiometry N [2] |
| --- | --- | --- |
| B1 | binds | – |
| B2 | – | 3 P1+P2:M.NPM2 |

Source: PMC5600342 (Biochemistry and Biophysics Reports, 2016)
